Bridges are numbered along the chain shown (N, C = ends). Where no end group is shown, it is not given here. [ ]: non-standard residue; d: D form. The star is where a group is joined. Biotin = O=C1N[C@H]2[C@H](CS[C@H]2CCCCC(=O)*)N1; R8 = C=CCCCCCC[C@@](C)(N)C(=O)O; Cba = N[C@@H](CC1CCC1)C(=O)O; S5 = C=CCCC[C@](C)(N)C(=O)O
What follows are substances tested against T1, recombinant HDMX (amino acids 1-490 of SEQ ID NO:104) (Homo sapiens, UniProt O15151) (assay: Competitive streptavidin pull-down of biotinylated peptides with 1:1 recombinant HDM2/HDMX mixture, HDMX western). Conditions: biotinylated stapled peptide, 1:1 mixture of recombinant HDM2 and HDMX.
T1 construct: thioredoxin (N, cleaved yes); S tag (N, cleaved yes); hexahistidine (N, cleaved yes); made in house; host or cells: E. coli (inferred: pET32-LIC vector, handled as described for HDM2 in BL21(DE3))
T1 sequence (O15151 1-490): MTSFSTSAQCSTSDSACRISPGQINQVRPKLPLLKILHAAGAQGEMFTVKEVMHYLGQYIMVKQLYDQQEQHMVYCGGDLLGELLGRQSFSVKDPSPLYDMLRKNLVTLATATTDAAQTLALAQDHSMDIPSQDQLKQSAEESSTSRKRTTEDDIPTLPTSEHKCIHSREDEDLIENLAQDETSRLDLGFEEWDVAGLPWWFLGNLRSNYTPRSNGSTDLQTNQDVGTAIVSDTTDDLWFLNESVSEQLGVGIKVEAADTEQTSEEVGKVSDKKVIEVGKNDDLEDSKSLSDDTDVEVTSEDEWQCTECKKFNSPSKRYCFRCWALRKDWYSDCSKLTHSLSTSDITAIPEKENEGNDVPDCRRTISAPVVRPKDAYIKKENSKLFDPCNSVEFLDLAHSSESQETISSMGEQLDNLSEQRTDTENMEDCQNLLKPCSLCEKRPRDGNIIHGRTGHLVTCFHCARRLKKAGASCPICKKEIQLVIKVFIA
Format: binding

Substance	HDMX versus HDM2 binding selectivity
ATSP-7041 B26G (Biotin-LTF[R8]EYWAQG[S5]SAA-NH2; staple 4-11; SMILES CC(C)C[C@H](NC(=O)CCCC[C@@H]1SC[C@@H]2NC(=O)N[C@@H]21)C(=O)N[C@H](C(=O)N[C@@H](Cc1ccccc1)C(=O)N[C@]1(C)CCCCCCC=CCCC[C@@](C)(C(=O)N[C@@H](CO)C(=O)N[C@@H](C)C(=O)N[C@@H](C)C(N)=O)NC(=O)CNC(=O)[C@H](CCC(N)=O)NC(=O)[C@H](C)NC(=O)[C@H](Cc2c[nH]c3ccccc23)NC(=O)[C@H](Cc2ccc(O)cc2)NC(=O)[C@H](CCC(=O)O)NC1=O)[C@@H](C)O)	HDMX selectivity over HDM2
SAH-p53-4 T18E: Formula (I) stapled peptide: [Xaa]w LSQEEF, [Xaa]x DLWKLL, [Xaa]y EN (LSQEEF[R8]DLWKLL[S5]EN-NH2; staple 7-14; not fully specified)	dual selectivity to HDMX and HDM2
ATSP-7041 B26C (Biotin-LTF[R8]EYWAQC[S5]SAA-NH2; staple 4-11; SMILES CC(C)C[C@H](NC(=O)CCCC[C@@H]1SC[C@@H]2NC(=O)N[C@@H]21)C(=O)N[C@H](C(=O)N[C@@H](Cc1ccccc1)C(=O)N[C@]1(C)CCCCCCC=CCCC[C@@](C)(C(=O)N[C@@H](CO)C(=O)N[C@@H](C)C(=O)N[C@@H](C)C(N)=O)NC(=O)[C@H](CS)NC(=O)[C@H](CCC(N)=O)NC(=O)[C@H](C)NC(=O)[C@H](Cc2c[nH]c3ccccc23)NC(=O)[C@H](Cc2ccc(O)cc2)NC(=O)[C@H](CCC(=O)O)NC1=O)[C@@H](C)O)	HDMX selectivity over HDM2
SAH-p53-4 L14A: Formula (I) stapled peptide: [Xaa]w ASQETF, [Xaa]x DLWKLL, [Xaa]y EN (ASQETF[R8]DLWKLL[S5]EN-NH2; staple 7-14; also: biotinylated)	dual selectivity to HDMX and HDM2
SAH-p53-4 L25A: Formula (I) stapled peptide: [Xaa]w LSQETF, [Xaa]x DLWKAL, [Xaa]y EN (LSQETF[R8]DLWKAL[S5]EN-NH2; staple 7-14; also: biotinylated)	dual selectivity to HDMX and HDM2
LTF8EYWAQBXAAA (Biotin-LTF[R8]EYWAQ[Cba][S5]AAA-NH2; staple 4-11) [ATSP-7041 S28A]	restored dual HDM2/HDMX binding selectivity
ATSP-7041 B26Y (Biotin-LTF[R8]EYWAQY[S5]SAA-NH2; staple 4-11; SMILES CC(C)C[C@H](NC(=O)CCCC[C@@H]1SC[C@@H]2NC(=O)N[C@@H]21)C(=O)N[C@H](C(=O)N[C@@H](Cc1ccccc1)C(=O)N[C@]1(C)CCCCCCC=CCCC[C@@](C)(C(=O)N[C@@H](CO)C(=O)N[C@@H](C)C(=O)N[C@@H](C)C(N)=O)NC(=O)[C@H](Cc2ccc(O)cc2)NC(=O)[C@H](CCC(N)=O)NC(=O)[C@H](C)NC(=O)[C@H](Cc2c[nH]c3ccccc23)NC(=O)[C@H](Cc2ccc(O)cc2)NC(=O)[C@H](CCC(=O)O)NC1=O)[C@@H](C)O)	HDMX selectivity over HDM2
SAH-p53-4 T18R: Formula (I) stapled peptide: [Xaa]w LSQERF, [Xaa]x DLWKLL, [Xaa]y EN (LSQERF[R8]DLWKLL[S5]EN-NH2; staple 7-14; not fully specified)	selectivity to HDM2
ATSP-7041 B26W (Biotin-LTF[R8]EYWAQW[S5]SAA-NH2; staple 4-11; SMILES CC(C)C[C@H](NC(=O)CCCC[C@@H]1SC[C@@H]2NC(=O)N[C@@H]21)C(=O)N[C@H](C(=O)N[C@@H](Cc1ccccc1)C(=O)N[C@]1(C)CCCCCCC=CCCC[C@@](C)(C(=O)N[C@@H](CO)C(=O)N[C@@H](C)C(=O)N[C@@H](C)C(N)=O)NC(=O)[C@H](Cc2c[nH]c3ccccc23)NC(=O)[C@H](CCC(N)=O)NC(=O)[C@H](C)NC(=O)[C@H](Cc2c[nH]c3ccccc23)NC(=O)[C@H](Cc2ccc(O)cc2)NC(=O)[C@H](CCC(=O)O)NC1=O)[C@@H](C)O)	HDMX selectivity over HDM2
SAH-p53-4 L22E: Formula (I) stapled peptide: [Xaa]w LSQETF, [Xaa]x DEWKLL, [Xaa]y EN (LSQETF[R8]DEWKLL[S5]EN-NH2; staple 7-14; also: biotinylated)	dual selectivity to HDMX and HDM2
SAH-p53-4 T18A: Formula (I) stapled peptide: [Xaa]w LSQEAF, [Xaa]x DLWKLL, [Xaa]y EN (LSQEAF[R8]DLWKLL[S5]EN-NH2; staple 7-14; not fully specified)	dual selectivity to HDMX and HDM2
LTF8EYWEQBXEAA (LTF[R8]EYWEQ[Cba][S5]EAA-NH2; staple 4-11; not fully specified (N-terminus); printed as LTF8EYWEQBXEAA) [ATSP-7041 A24E/S28E]	restored dual HDM2/HDMX binding selectivity
ATSP-7041 B26V (Biotin-LTF[R8]EYWAQV[S5]SAA-NH2; staple 4-11; SMILES CC(C)C[C@H](NC(=O)CCCC[C@@H]1SC[C@@H]2NC(=O)N[C@@H]21)C(=O)N[C@H](C(=O)N[C@@H](Cc1ccccc1)C(=O)N[C@]1(C)CCCCCCC=CCCC[C@@](C)(C(=O)N[C@@H](CO)C(=O)N[C@@H](C)C(=O)N[C@@H](C)C(N)=O)NC(=O)[C@H](C(C)C)NC(=O)[C@H](CCC(N)=O)NC(=O)[C@H](C)NC(=O)[C@H](Cc2c[nH]c3ccccc23)NC(=O)[C@H](Cc2ccc(O)cc2)NC(=O)[C@H](CCC(=O)O)NC1=O)[C@@H](C)O)	HDMX selectivity over HDM2
SAH-p53-4 L22A: Formula (I) stapled peptide: [Xaa]w LSQETF, [Xaa]x DAWKLL, [Xaa]y EN (LSQETF[R8]DAWKLL[S5]EN-NH2; staple 7-14; also: biotinylated)	dual selectivity to HDMX and HDM2
SAH-p53-4 Q16A: Formula (I) stapled peptide: [Xaa]w LSAETF, [Xaa]x DLWKLL, [Xaa]y EN (LSAETF[R8]DLWKLL[S5]EN-NH2; staple 7-14; not fully specified)	dual selectivity to HDMX and HDM2
SAH-p53-4 S15R: Formula (I) stapled peptide: [Xaa]w LRQETF, [Xaa]x DLWKLL, [Xaa]y EN (LRQETF[R8]DLWKLL[S5]EN-NH2; staple 7-14; not fully specified)	selectivity to HDM2

Results, then the substance that gave them:

HDMX versus HDM2 binding selectivity	Substance
dual selectivity to HDMX and HDM2	SAH-p53-4 K24R: Formula (I) stapled peptide: [Xaa]w LSQETF, [Xaa]x DLWRLL, [Xaa]y EN (LSQETF[R8]DLWRLL[S5]EN-NH2; staple 7-14; not fully specified (N-terminus))
dual selectivity to HDMX and HDM2	SAH-p53-4 D21E: Formula (I) stapled peptide: [Xaa]w LSQETF, [Xaa]x ELWKLL, [Xaa]y EN (LSQETF[R8]ELWKLL[S5]EN-NH2; staple 7-14; not fully specified (N-terminus))
dual selectivity to HDMX and HDM2	SAH-p53-4 N29E: Formula (I) stapled peptide: [Xaa]w LSQETF, [Xaa]x DLWKLL, [Xaa]y EE (LSQETF[R8]DLWKLL[S5]EE-NH2; staple 7-14; not fully specified)
dual selectivity to HDMX and HDM2	SAH-p53-4 L25R: Formula (I) stapled peptide: [Xaa]w LSQETF, [Xaa]x DLWKRL, [Xaa]y EN (LSQETF[R8]DLWKRL[S5]EN-NH2; staple 7-14; not fully specified)
dual selectivity to HDMX and HDM2	SAH-p53-4 L25E: Formula (I) stapled peptide: [Xaa]w LSQETF, [Xaa]x DLWKEL, [Xaa]y EN (LSQETF[R8]DLWKEL[S5]EN-NH2; staple 7-14; not fully specified)
dual selectivity to HDMX and HDM2	SAH-p53-4 Q16R: Formula (I) stapled peptide: [Xaa]w LSRETF, [Xaa]x DLWKLL, [Xaa]y EN (LSRETF[R8]DLWKLL[S5]EN-NH2; staple 7-14; not fully specified)
dual selectivity to HDMX and HDM2	SAH-p53-4 D21R: Formula (I) stapled peptide: [Xaa]w LSQETF, [Xaa]x RLWKLL, [Xaa]y EN (LSQETF[R8]RLWKLL[S5]EN-NH2; staple 7-14; not fully specified (N-terminus))
HDMX selectivity over HDM2	SAH-p53-4 N29R: Formula (I) stapled peptide: [Xaa]w LSQETF, [Xaa]x DLWKLL, [Xaa]y ER (LSQETF[R8]DLWKLL[S5]ER-NH2; staple 7-14; not fully specified (N-terminus))

Same assay, conditions: biotinylated stapled peptide, 1:1 mixture of recombinant HDM2 and HDMX, listed as SEQ ID NO:29

Substance	HDMX versus HDM2 binding selectivity
SAH-p53-4 N29R: Formula (I) stapled peptide: [Xaa]w LSQETF, [Xaa]x DLWKLL, [Xaa]y ER (LSQETF[R8]DLWKLL[S5]ER-NH2; staple 7-14; not fully specified (N-terminus))	selectivity to HDMX

Same assay, conditions: biotinylated stapled peptide, 1:1 mixture of recombinant HDM2 and HDMX, listed as SEQ ID NO:61

Substance	HDMX versus HDM2 binding selectivity
ATSP-7041 B26G (Biotin-LTF[R8]EYWAQG[S5]SAA-NH2; staple 4-11; SMILES CC(C)C[C@H](NC(=O)CCCC[C@@H]1SC[C@@H]2NC(=O)N[C@@H]21)C(=O)N[C@H](C(=O)N[C@@H](Cc1ccccc1)C(=O)N[C@]1(C)CCCCCCC=CCCC[C@@](C)(C(=O)N[C@@H](CO)C(=O)N[C@@H](C)C(=O)N[C@@H](C)C(N)=O)NC(=O)CNC(=O)[C@H](CCC(N)=O)NC(=O)[C@H](C)NC(=O)[C@H](Cc2c[nH]c3ccccc23)NC(=O)[C@H](Cc2ccc(O)cc2)NC(=O)[C@H](CCC(=O)O)NC1=O)[C@@H](C)O)	selectivity to HDMX

Same assay, conditions: biotinylated stapled peptide, 1:1 mixture of recombinant HDM2 and HDMX, listed as SEQ ID NO:79

Substance	HDMX versus HDM2 binding selectivity
LTF8EYWAQBXAAA (Biotin-LTF[R8]EYWAQ[Cba][S5]AAA-NH2; staple 4-11) [ATSP-7041 S28A]	dual-selectivity to HDMX and HDM2

Same assay, conditions: biotinylated stapled peptide, 1:1 mixture of recombinant HDM2 and HDMX, listed as SEQ ID NO:81

Substance	HDMX versus HDM2 binding selectivity
LTF8EYWEQBXEAA (LTF[R8]EYWEQ[Cba][S5]EAA-NH2; staple 4-11; not fully specified (N-terminus); printed as LTF8EYWEQBXEAA) [ATSP-7041 A24E/S28E]	dual-selectivity to HDMX and HDM2
